Assay results as given in patent US20210163601A1 (Amgen, published 2021).

T1: Soluble ASGR-1 (recombinant, biotinylated) (human, UniProt P07306 62-291, limits assumed, biotinylated)
T1 construct: also called recombinant, soluble ASGR-1 biotinylated protein
T1 sequence: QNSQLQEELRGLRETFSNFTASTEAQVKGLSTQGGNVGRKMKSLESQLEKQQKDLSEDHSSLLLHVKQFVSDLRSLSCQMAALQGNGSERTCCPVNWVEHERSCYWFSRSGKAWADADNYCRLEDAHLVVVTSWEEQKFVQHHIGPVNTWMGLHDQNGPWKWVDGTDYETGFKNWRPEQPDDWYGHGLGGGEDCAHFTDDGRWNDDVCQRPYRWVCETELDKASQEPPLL


target: T1, Soluble ASGR-1 (recombinant, …); test: limiting antigen bead FACS; biotinylated soluble ASGR-1 coated at 2.5 ng/mL on LumAvidin beads;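 further: hybridoma supernatants of ligand-competing antibodies bound to antigen-loaded beads, read by flow cytometry on an iQue Screener in calcium-containing buffer, higher fluorescence meaning stronger relative affinity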

Binder | FACS Geomean
193E7 (antibody, V domains shown, Tested as hybridoma supernatant) VH: QVQLQQWGAGLLKPSETLSLTCAVYGGSFSGYFWTWIRQPPGKGLEWIGEINHSGSTNYNPSLKSRVTISVDTSKNQFSLKLSSVTAADTAVYYCARDYGADYWGQGTLVAVSA VL: DIQMTQSPSSLSASVGDRVTITCRASQGIRNDLGWYQQKPGKAPKRLIYSASSLQRGVPSRFSGSGSGTEFTLTISSLQPEDFATYYCLQHKRYPLTFGGGTKVEIK | 18300
176H4 (antibody, V domains shown, Tested as hybridoma supernatant) VH: QVQLVESGGGVVQPGRSLRLSCAASGFTFSSYGMHWVRQAPGKGLEWVAIIWYDGSYKYYADSVKGRFTISRDNSKNTLYLQMSSLRAEDTAVYYCARDAHDFWSGYFAYWGQGALVTVSS VL: DIVMTQTPLSLSVTPGQPASISCKSSQSLLHGDGKTYLYWYLQKPGQPPQLLIYEVSNRFSGVPDRFSGSGSGTDFTLKISRVEAEDVGIYYCMQSIQIPWTFGQGTRVEIK | 29400
7F4 (antibody, V domains shown, Tested as hybridoma supernatant) VH: QLQLQESGPGLVKPSETLSLTCTVSGGSISRSSYYWGWIRQPPGKGLEWIGNIYYSGATYYNPSLKSRVTISVDTSTNQFSLKLSSVTAADTAVYYCARHSGSWSLDYWGQGTLVTVSS VL: DIQMTQSPSSLSASVGDRVTITCRTSQGIRNDLGWYQQKPGKAPKRLIYAASNLQSGVPSRFSGSGSGTEFTLTISSLQPEDFATYYCLQHSAYPLTFGGGTKVEIK | 4910
198D2 (antibody, V domains shown, Tested as hybridoma supernatant) VH: QVQLVESGGGVVQPGRSLRLSCAASGFTFRSYGMHWVRQAPGKGLEWVAVIIYDGSYKYYADSVKGRFTISRDNSKNTLYLQMNSLRAEDTAVYYCARTYSGGMDVWGQGTTVTVSS VL: QSVLTQPPSVSAAPGQKVTISCSGSSSNIGSNYVSWYQQLPGTAPKVLIYDNNKRPSGIPDRFSGSKSGTSATLGITGLQTGDEADYYCGTWDSRLNVGVFGGGTKLTVL | 1870
194C10 (antibody, V domains shown, Tested as hybridoma supernatant) VH: QVQLQQWGAGLLKPSETLSLTCAVSGGSFRYYYWSWIRQPPGKGLEWFGEINHSGSTNYNPSLKSRVTISIDTSKNQFSLKLRSVTAADTAVYYCARDYGAFDIWGQGTMVTVSS VL: EIVLTQSPGTLSLSPGERATLSCRASPSVNSGYLAWYQQKPGQTPRLLIFGASSRATGIPDRFSASGSGADFTLTISRLEPEDFAVYFCQQYESSPWTFGQGTKVEIK | 21900
202A3 (antibody, V domains shown, Tested as hybridoma supernatant) VH: QVQLEQSGAEVKKPGASVKVSCKASGYTFTSYDINWVRQATGQGLEWLGWMNPKRGNTGYAQKFQGRVTMTRNTSISTAHMELSSLRSEDTAVYYCARGRYSREDYYYYYDMDVWGQGTTVTVSS VL: DIQMSQSPSSLSASVGDRVTITCRASQGIRNDLGWYQQKPGKAPKRLICAASRLQSGVPSRFSGSGSGTEFTLTISSLQPEDFAIYYCLQHHDYPFTFGPGTKVDIK | 2150
12D2 (antibody, V domains shown, Tested as hybridoma supernatant) VH: EVQLVESGGGLVKPGGSLRLSCAASGFTFSSYSMNWVRQAPGKGLEWVSSISSSSSYIYYADSVKGRFTISRDNAKNSLYLQMNSLRAEDTAVYYCARLGDYWGQGTLVAVSS VL: not shown | 105
